Patent US7659073

human kallikrein 2 (hK2)
relative rate of pPSA activation by hK2 (HIC-HPLC) ([-5]pPSA): The [5/-7]pPSA was activated most rapidly | relative rate of pPSA activation by hK2 (HIC-HPLC) ([-7]pPSA): The [5/-7]pPSA was activated most rapidly | relative rate of pPSA activation by hK2 (HIC-HPLC) ([-2]pPSA): [-2]pPSA was not activated by hK2 | relative rate of pPSA activation by hK2 (HIC-HPLC) ([-4]pPSA): the [-4]pPSA was activated more slowly

trypsin
cleavage of the pro leader by trypsin (N-terminal sequencing) ([-2]pPSA): there was little or no cleavage to release the SR dipeptide of the [-2]pPSA (data not shown)
